Ends that are not written are not given here.
How the values were obtained:
CCR7 (Homo sapiens) [1] = test: nanoDSF; details: cited from earlier work
CCR7 (Homo sapiens) [2] = test: nanoDSF; details: cited from earlier work; remark: listed apart in the source
[3] = molecular target: CCR7 N-terminus (Homo sapiens) (UniProt P32248); test: nanoDSF; details: cited from earlier work
CCR7 (Homo sapiens) [4] = test: NMR; details: cited from earlier work
[5] = molecular target: T1, Recombinant human [U-15N] CCL19 (human, UniProt Q99731 22-98, uniformly 15N-labelled ([U-15N])); test: NMR titration
T1 sequence (looked up): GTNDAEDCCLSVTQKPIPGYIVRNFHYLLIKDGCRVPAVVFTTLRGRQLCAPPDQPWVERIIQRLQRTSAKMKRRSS

Sequence of CCR7 N-terminus (Homo sapiens) (P32248 25-59): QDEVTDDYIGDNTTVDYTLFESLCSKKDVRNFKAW

For CCL19 (from UniProt Q99731), the Kd (CCR7 (Homo sapiens) [1]) is given as 800 nM, the Kd (CCR7 (Homo sapiens) [2]) is given as 300 nM and the Kd [3] is given as > 1000 nM.

In the case of CCL21 (from UniProt O00585), the Kd (CCR7 (Homo sapiens) [4]) is listed as 700 µM.

B1: CCR7 5-11 peptide (TDDYIGD-NH2) (peptide)
peptide: TDDYIGD-NH2
B1 gave a Kd [5] of 200 ± 100 µM.

Source: PMC9254573 (Biochemistry, 2022)
